Data on one molecule can be found in patent US9957295B2, “Peptides inhibiting cold-inducible RNA binding protein activity” (The Feinstein Institute for Medical Research, priority 2013, dated 2018).

One data set deals with THP-1 cells. Put plainly: TNF-α release from differentiated THP-1 cells stimulated with recombinant proteins. As to conditions: 0.3 μg/ml each protein, 8 h, ELISA. Type of data set: cell-based, human. As for the experimental part:
As with the murine model, the stimulation of TNF-α, release by rCIRP in a human model was studied. […] These experiments were conducted by incubating differentiated human THP-1 cells with rhCIRP or rmCIRP at the indicated concentrations for 4 h. *P<0.05 vs. no CIRP. Similarly, human PBMC were incubated with the indicated concentrations of rhCIRP for 8 h. *P<0.05 vs. no rhCIRP. Thus, stimulation of cytokine release by CIRP was not attributable to LPS contamination. Furthermore, CIRP-induced cytokine activation was conserved between rodents and humans.
rmCIRP induced TNF-α and HMGB1 release in macrophages (FIGS. 10a, b and c). It was reported that HMGB1 can also stimulate TNF-α release (Andersson, U., et al. High mobility group 1 protein (HMG-1) stimulates proinflammatory cytokine synthesis in human monocytes. J. Exp. Med. 192, 565-570 (2000)). The relationship between CIRP and HMGB1 on stimulating TNF-α release was analyzed by applying respective neutralizing antibodies. […] After 4 h, TNF-α levels in conditioned medium (CM) were assayed by ELISA. Data are mean±s.e.m. from three independent experiments. *P<0.05 vs. rmCIRP+ control IgG. In FIG. 16D, RAW 264.7 cells were pre-incubated with rabbit control IgG or anti-CIRP antibodies at indicated dilutions of 1 mg/ml for 20 min before adding 1.0 μg/ml rmCIRP. After 4 h, TNF-α levels in CM were assayed by ELISA. Data are mean±s.e.m. from three independent experiments. *P<0.05 vs. rmCIRP+ control IgG. THP-1 cells were incubated with 4 μg/ml of anti-CIRP antibodies, anti-HMGB1 antibodies, or non-immunized control IgG for 1 h prior to adding rmCIRP (0.3 μg/ml), rmHMGB1 (0.3 μg/ml), or rmCIRP/rmHMGB1 (0.3 μg/ml, 0.3 μg/ml) for 8 h. *P<0.05 vs. rmCIRP; #P<0.05 vs. rmHMGB1. […] Furthermore, rmCIRP, rmHMGB1, and rmCIRP plus rmHMGB1 induced TNF-α levels of 0.8, 0.6, and 1.6 ng/ml, respectively. […] TNF-α levels in all collected CM were assayed by ELISA. Data are mean±s.e.m. from three or four independent experiments.
Murine macrophage-like RAW 264.7 cells and human monocyte THP-1 cells were obtained from ATCC (Manassas, Va.). […]
A general note: In an ELISA, binding on a coated surface is turned into a signal by an enzyme label.

The subject of the next data set is healthy rats. Put plainly: Administration of recombinant CIRP to healthy rats. Type of data set: in vivo, rat. As for the experimental part:
As an index of the inflammatory cytokine cascade and the acute inflammatory response, supernatants from cells incubated with recombinant CIRP were measured for TNF-α and IL-6 levels in serum, tissue homogenates, and culture medium grown with macrophages using a commercially available enzyme-linked immunosorbent assay (ELISA) kits (BioSource International, Camarillo, Calif.) according to the manufacturer's instruction. To quantify TNF-α and IL-6 protein levels in serum and tissue, serum samples were harvested 4 h after hemorrhage, or 4 h after treatment with recombinant CIRP from animals by cardiac puncture at the time that the rats were sacrificed, and collected tissue samples, and carried out by the same method as above. HMGB1 levels were determined by Western blotting.
Serum concentrations of aspartate aminotransferase (AST), alanine aminotransferase (ALT), and lactate were determined by using assay kits according to the manufacturer's instructions (Pointe Scientific, Lincoln Park, Mich.).
Healthy rats were intravenously administered rmCIRP (1 mg/kg BW) or normal saline (vehicle). After the injection of rCIRP (1 mg/kg BW) or buffer solution (same volume), as control, serum levels of TNF-α increased markedly in the rCIRP group, about 5 fold higher than buffer (sham) group (FIG. 4A). […] RAW 264.7 cells were incubated with indicated concentrations of rmCIRP for 20 h. HMGB1 levels in conditioned medium (CM) were determined by Western blotting. Band intensities were quantified with densitometry. […] After 4 hours, blood and tissues were collected for analysis. […] Data are mean±s.e.m., n=6-9/group, *P<0.05 vs. vehicle.
In additional groups of normal healthy animals, rCIRP, for example rmCIRP (1 mg/kg BW) or buffer (same volume, 1 ml) were administered. At 4 h after the completion of treatment, blood samples were collected and placed on ice to allow clotting, and then were centrifuged at 1200 g for 10 min at 4° C., and the serum samples were stored at −80° C. until assayed. […]

B1: rmCIRP: recombinant murine (rat sequence) His-tagged CIRP expressed in E. coli (protein)
chain: MASDEGKLFVGGLSFDTNEQALEQVFSKYGQISEVVVVKDRETQRSRGFGFVTFENIDDAKDAMMAMNGKSVDGRQIRVDQAGKSSDNRSRGYRGGSAGGRGFFRGGRSRGRGFSRGGGDRGYGGGRFESRSGGYGGSRDYYASRSQGGSYGYRSSGGSYRDSYDSYATHNEHHHHHH
B1: the “induced TNF-α levels” value with THP-1 cells turned out to be 0.8 ng/mL. Moreover, in the data set with healthy rats (1 mg/kg BW), the “serum TNF-α versus buffer (sham) group” value was “about 5 fold”. In the data set with healthy rats (1 mg/kg BW intravenous, 4 hours, vs normal saline), the “serum TNF-α, IL-6, HMGB1 levels and organ injury markers AST and ALT” value is listed as “significantly increased”. In the data set on healthy rats (1 mg/kg BW, normal healthy rats), the “serum levels of AST and ALT” value is given as “significantly elevated”.
